What was measured:
[1] = target: mCherry-optoPlexin (chimera of Cry2 at the amino terminus, mCherry, and the intracellular domain of Plexin-B1 at the C terminus) (not stated | mouse) (UniProt Q96524); assay: membrane co-recruitment assay (TIRF microscopy); living COS-7 cells co-expressing mVenus-RhoGEF, the mCherry-tagged Cry2 construct and CIB-CAAX; whole-cell blue light; increase of the RhoGEF's fluorescence relative to that of optoPlexin (relative co-recruitment); only cells with at least 30% increase in optoPlexin signal; also with Erlotinib
[2] = target: farnesylated Cryptochrome interacting basic helix-loop-helix 1 (CIB1-CAAX) (UniProt Q8GY61); assay: light-induced membrane recruitment assay (TIRF microscopy); living COS-7 or MC3T3-E1 cells co-expressing the Cry2 construct and CIB-CAAX; illumination limited to a 5 μm-diameter circle (440 nm); 37 °C
[3] = target: farnesylated Cryptochrome interacting basic helix-loop-helix 1 (CIB1-CAAX) (UniProt Q8GY61); assay: light-induced membrane recruitment assay (TIRF microscopy); living COS-7 cells co-expressing the Cry2 construct and CIB1-CAAX at the plasma membrane; whole-cell blue light (440 nm, 50 ms pulses at 10 s intervals); fluorescence after ten pulses normalised to that before illumination; 37 °C

Sequence of UniProt Q8GY61 (Q8GY61 whole entry): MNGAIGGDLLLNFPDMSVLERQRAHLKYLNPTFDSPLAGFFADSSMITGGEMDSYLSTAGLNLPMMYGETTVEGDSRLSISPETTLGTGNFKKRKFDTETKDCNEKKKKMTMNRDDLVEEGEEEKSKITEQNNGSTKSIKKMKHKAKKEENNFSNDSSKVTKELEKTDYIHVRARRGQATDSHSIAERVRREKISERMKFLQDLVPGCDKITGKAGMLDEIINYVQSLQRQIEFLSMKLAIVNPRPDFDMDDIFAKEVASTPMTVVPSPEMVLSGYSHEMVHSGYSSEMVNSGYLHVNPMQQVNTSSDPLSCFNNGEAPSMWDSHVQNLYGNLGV

relative co-recruitment (increase in fluorescence relative to that of optoPlexin) [1] [%]	fold increase of TIRF fluorescence intensity (membrane recruitment) [2] [fold]	fold increase of TIRF fluorescence intensity (membrane recruitment) [3] [fold]	Substance
26	–	–	mVenus-PDZ-RhoGEF (mVenus-PRG) (from UniProt O15085 1-1522) (natural protein)
–	4	2	mCherry-optoPlexin (chimera of Cry2 at the amino terminus, mCherry, and the intracellular domain of Plexin-B1 at the C terminus) (from UniProt Q96524 1-612)
60	–	–	mVenus-Leukemia-associated RhoGEF (mVenus-LARG) (from UniProt Q9NZN5 1-1544) (natural protein)
